Reference: PMC8322138, “BRCA2 binding through a cryptic repeated motif to HSF2BP oligomers does not impact meiotic recombination” (Nature Communications, 2021)
One block for each molecule: values may come before it.

Tests used:
[1] = NMR chemical shift secondary structure analysis of F0; assay type: physicochemical, human; conditions: 50 mM Hepes pH 7.0, 50 mM NaCl, 283 K, 700 MHz
Description: (§1) For NMR analysis, ^15N-labeled or ^15N- and ^13C-labeled BRCA2 fragments were produced in E. coli BL21 DE3 Star cells grown in M9 medium containing either 0.5 g/l ^15NH4Cl or 0.5 g/l ^15NH4Cl and 2 g/l ^13C-glucose, respectively. […]
(§2) The ^15N/^13C-labeled F0 fragment was analyzed by 3D heteronuclear NMR. in order to assign its Hn, N, Cα, Cβ, and Co chemical shifts, and identify its binding site to HSF2BP. Therefore, 3D NMR HNCA, CBCACONH, HNCACB, HNCANNH, HNCO, and HNCACO experiments were performed on a 700 MHz Bruker AVANCE NEO spectrometer equipped with a triple resonance cryogenic TCI probe at 283 K. The data were processed using Topspin 4.0 (Bruker) and analyzed using CCPNMR 2.4[49]. […] For binding studies, 2D NMR ^1H-^15N HSQC experiments were recorded on a 3-mm-diameter sample tube containing the ^15N-labeled F0 at 100 μM in the absence and presence of the ARM domain at 100 μM, on a 950 MHz Bruker Avance III spectrometer equipped with a triple resonance cryogenic TCI probe at 283 K.

[2] = target: T1, HSF2BP FL (Homo sapiens, UniProt O75031); test: ITC of BRCA2 fragments with full-length HSF2BP; assay type: binding
T1 construct: Human full-length HSF2BP WT and R200T were expressed; 6xHis-TEV (N, cleaved yes); made in house; host or cells: E. coli BL21 DE3 Rosetta2
T1 sequence (O75031 1-334): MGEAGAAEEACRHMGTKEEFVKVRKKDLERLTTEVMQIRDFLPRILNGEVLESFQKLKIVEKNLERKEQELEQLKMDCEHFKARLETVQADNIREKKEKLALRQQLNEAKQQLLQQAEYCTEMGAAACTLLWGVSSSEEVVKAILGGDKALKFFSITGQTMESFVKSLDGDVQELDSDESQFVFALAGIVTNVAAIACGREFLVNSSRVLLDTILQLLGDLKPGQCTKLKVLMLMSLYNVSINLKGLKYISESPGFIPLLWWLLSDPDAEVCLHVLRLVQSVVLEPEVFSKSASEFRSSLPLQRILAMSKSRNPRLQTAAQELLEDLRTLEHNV
Text: (§3) Human full-length HSF2BP WT and R200T were expressed using a pETM11 (6xHis-TEV) expression vector in E. coli BL21 DE3 Rosetta2 cells, and purified as previously reported (Brandsma et al., Cell Rep 2019). The armadillo domain of HSF2BP, from aa 122 to aa 334, which we will further name ARM, was similarly expressed using a pETM11 (6xHis-TEV) expression vector in BL21 DE3 Rosetta2 cells and purified as full-length HSF2BP.
(§4) Human BRCA2 fragment F0 was expressed using a pET-22b expression vector as a fusion protein comprising BRCA2 from aa 2213 to aa 2342 (including mutation C2332T to avoid oxidation problems), a TEV site, a GB1 and 6xHis tag, in E. coli BL21 DE3 Star cells. The BRCA2 gene was optimized for expression in bacteria and synthesized by Genscript. In addition, smaller BRCA2 fragments were produced using the same strategy: FNMR and F15X corresponding to aa 2252 to aa 2342 and aa 2291 to aa 2343, respectively. The smallest fragment F15X∆12, from aa 2312 to aa 2342, was synthesized by Genecust.
(§5) ITC experiments were performed using a high-precision VP-ITC instrument (GE Healthcare) at 293 K. To characterize the interactions between HSF2BP and BRCA2 fragments (WT, variants), the proteins were dialyzed against 25 mM Tris pH 7.5, 250 mM NaCl, 5 mM β-mercaptoethanol. The HSF2BP (or ARM domain) was in the sample cell at 10–20 μM and was titrated by BRCA2 fragments at 40–100 μM, using 10 μL injections with 210 s intervals between each injection. The first 2 μL injection was ignored in the final data analysis. The integration of the peaks corresponding to each injection. the correction for the baseline and the fit were performed using the Origin 7.0 software provided by the manufacturer, to obtain the stoichiometry (N), dissociation constant (Kd), and enthalpy of complex formation (ΔH) for each interaction. Two replicates were performed for each experiment.

[3] = tested on: HSF2BP mutant R200T; test: ITC of BRCA2 F0 with HSF2BP R200T; assay type: binding, human; conditions: ITC control
Description: as §3, §5

[4] = target: T2, ARM domain of HSF2BP (Homo sapiens, UniProt O75031); test: 2D NMR 1H-15N HSQC of 15N-labeled F0 with ARM; assay type: binding; conditions: 15N-F0 100 μM, ARM 1:1, 950 MHz, 283 K, pH 7.0; region S2252-Q2342
T2 construct: The armadillo domain of HSF2BP, from aa 122 to aa 334; 6xHis-TEV (N, cleaved yes); made in house; host or cells: E. coli BL21 DE3 Rosetta2
T2 sequence (O75031 122-334): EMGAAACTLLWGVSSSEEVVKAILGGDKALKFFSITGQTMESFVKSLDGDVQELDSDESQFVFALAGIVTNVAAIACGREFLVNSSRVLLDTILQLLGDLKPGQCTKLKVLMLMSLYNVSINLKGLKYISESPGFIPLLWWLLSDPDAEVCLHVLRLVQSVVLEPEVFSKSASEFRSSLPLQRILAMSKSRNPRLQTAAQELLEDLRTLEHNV
Description: as §1, §2

[5] = target: T2, ARM domain of HSF2BP; test: ITC of BRCA2 fragments with HSF2BP armadillo domain; assay type: binding; conditions: for ΔG / −TΔS / ΔH (±error): 293 K
Text: as §3, §4, §5

[6] = Stability / expression of recombinant GFP-HSF2BP variants; design: species or system human; conditions: peer review file; immunoblot, FACS
[7] = tested on: mitomycin C-induced repair foci; conditions: cited from earlier work
Text: Consistent with our in vitro study, we observed in mouse ES cells that deletion of exon 12, coding for motif 1, causes a severe decrease in the BRCA2-HSF2BP interaction, and deletion of exons 12 to 14, coding for motifs 1 and 2, completely abolishes this interaction (Fig. 5d, e). […] We further previously ...

[8] = tested on: GFP-HSF2BP; test: Co-immunoprecipitation of Flag-BRCA2 variants/fragments with GFP-HSF2BP WT; assay type: cell-based, human; conditions: transient HEK293T, anti-GFP beads, immunoblot
Text: (§6) Expression constructs for producing point mutation and truncation variants of HS2BP and BRCA2 in human cells were engineered as described before[16] in the PiggyBac vectors by Gibson assembly. For transient expression into HEK293T cells plasmid DNA was transfected using calcium precipitation method or PEI transfection. For stable integration into HeLa cells, PiggyBac expression vectors were co-lipofected together with PiggyBac transposase plasmid (hyPBase[45]) with Lipofectamine 3000 (Thermo Fisher).
(§7) Cells were washed twice in ice-cold PBS and lysed in situ in NETT buffer (100 mM NaCl, 50 mM Tris pH 7.5, 5 mM EDTA pH 8.0, 0.5% Triton-X100) supplemented immediately before use with protease inhibitor cocktail (Roche) and 0.4 mg/ml Pefabloc (Roche) (NETT++); 450 µl NETT++ buffer was used per 145 mm dish ES cells, 1 ml for HeLa and HEK293T. After 5–10 min, cells were scraped off and collected in 1.5 ml microcentrifuge tubes; lysis was continued for additional 20–30 min on ice, then mixtures were centrifuged (15 min, 4 °C, 14,000 × g) and the supernatant (input) was added to washed anti-GFP beads (Chromotek). Beads and lysates were incubated 2–4 h at 4 °C while rotating, washed three times in NETT++ buffer and bound proteins were eluted by boiling in 2x Sample buffer. Immunoblotting was performed following standard procedures with the following antibodies: anti-GFP mAb (Roche, #11814460001), anti-GFP pAb (Abcam #ab290 and Invitrogen #A11122), anti-RAD51[46], anti-BRCA2 mAb Ab1 OP-95 (Millipore #OP95), anti-BRCA2 (Abcam #27976), anti-Flag (M2 antibody, Sigma, F3165 and F1804). For quantitative immunoblotting fluorescently labeled secondary antibodies were used: anti-mouse CF680 (Sigma #SAB460199), anti-rabbit CF770 (Sigma #SAB460215); membranes were scanned using Odyssey CLx imaging system (LI-COR).

[9] = tested on: H3 fragment (the ARM domain) of HSF2BP; test: Co-immunoprecipitation of Flag-BRCA2 fragments with GFP-HSF2BP fragment H3; assay type: cell-based, human; conditions: Fig. 1c; HEK293T; comparison with F15 and F9; reviewer's reading of the figure
Text: as §6
as §7, with “Beads and lysates were incubated 2–4 h at 4 °C while rotating, washed three times in NETT++ buffer and bound proteins were eluted by boiling in 2x Sample buffer. Immunoblotting was performed following standard procedures with the following antibodies: anti-GFP mAb (Roche, #11814460001), anti-GFP pAb (Abcam #ab290 and Invitrogen #A11122), anti-RAD51[46], anti-BRCA2 mAb Ab1 OP-95 (Millipore #OP95), anti-BRCA2 (Abcam #27976), anti-Flag (M2 antibody, Sigma, F3165 and F1804).” left out

ΔG ([2]; 293 K, pH 7.5, expt 1): -11.8 kcal/mol | −TΔS ([2]; 293 K, pH 7.5, expt 1): -0.8 kcal/mol | ΔH (±error) ([2]; 293 K, pH 7.5, expt 1, error in brackets): −11.0 (0.1) kcal/mol | −TΔS ([2]; 293 K, pH 7.5, expt 2): -1.0 kcal/mol | ΔH (±error) ([2]; 293 K, pH 7.5, expt 2, error in brackets): −10.9 (0.1) kcal/mol | stoichiometry ([2]; BRCA2 peptide per HSF2BP): 0.5 | affinity ratio HSF2BP vs ARM ([2]; HSF2BP binds tighter to F0 than does ARM): about 25 -fold | binding [3]: does not bind | HSQC peak intensity ratio (with ARM / free) [4]: lower than 0.4 | ΔG ([5]; pH 7.5, expt 1): -10 kcal/mol | −TΔS ([5]; pH 7.5, expt 1): -1.7 kcal/mol | ΔH (±error) ([5]; pH 7.5, expt 1, error in brackets): −8.3 (0.2) kcal/mol | ΔG ([5]; pH 7.5, expt 2): -10.1 kcal/mol | −TΔS ([5]; pH 7.5, expt 2): 1.8 kcal/mol | ΔH (±error) ([5]; pH 7.5, expt 2, error in brackets): −11.9 (0.2) kcal/mol | stoichiometry ([5]; one BRCA2 peptide binds to two ARM): 0.5
B1: F0: Human BRCA2 fragment aa 2213 to aa 2342 including mutation C2332T, recombinant (protein)
chain: STYSKDSENYFETEAVEIAKAFMEDDELTDSKLPSHATHSLFTCPENEEMVLSNSRIGKRRGEPLILVGEPSIKRNLLNEFDRIIENQEKSLKASKSTPDGTIKDRRLFMHHVSLEPITTVPFRTTKERQ
modifications: left off: GB1, C-terminal, cleaved | His6, C-terminal, cleaved
notes: Human BRCA2 fragment aa 2213 to aa 2342 including mutation C2332T, recombinant
transient α-helix population, region N2291-S2303 [1]: about 25%

B2: L85R: GFP-HSF2BP point mutant (protein, UniProt O75031 1-334, looked up, variant L85R)
Heat shock factor 2-binding …: MGEAGAAEEACRHMGTKEEFVKVRKKDLERLTTEVMQIRDFLPRILNGEVLESFQKLKIVEKNLERKEQELEQLKMDCEHFKARRETVQADNIREKKEKLALRQQLNEAKQQLLQQAEYCTEMGAAACTLLWGVSSSEEVVKAILGGDKALKFFSITGQTMESFVKSLDGDVQELDSDESQFVFALAGIVTNVAAIACGREFLVNSSRVLLDTILQLLGDLKPGQCTKLKVLMLMSLYNVSINLKGLKYISESPGFIPLLWWLLSDPDAEVCLHVLRLVQSVVLEPEVFSKSASEFRSSLPLQRILAMSKSRNPRLQTAAQELLEDLRTLEHNV
modifications: GFP fusion
notes: GFP-HSF2BP point mutant
stability of recombinant GFP-HSF2BP variant [6]: unstable

B3: R200T: HSF2BP mutant R200T (protein, UniProt O75031 1-334, looked up, variant R200T)
Heat shock factor 2-binding …: MGEAGAAEEACRHMGTKEEFVKVRKKDLERLTTEVMQIRDFLPRILNGEVLESFQKLKIVEKNLERKEQELEQLKMDCEHFKARLETVQADNIREKKEKLALRQQLNEAKQQLLQQAEYCTEMGAAACTLLWGVSSSEEVVKAILGGDKALKFFSITGQTMESFVKSLDGDVQELDSDESQFVFALAGIVTNVAAIACGTEFLVNSSRVLLDTILQLLGDLKPGQCTKLKVLMLMSLYNVSINLKGLKYISESPGFIPLLWWLLSDPDAEVCLHVLRLVQSVVLEPEVFSKSASEFRSSLPLQRILAMSKSRNPRLQTAAQELLEDLRTLEHNV
localization of GFP-tagged HSF2BP to mitomycin C-induced repair foci [7]: abolishes localization

B4: F16: Flag-tagged BRCA2 fragment 2270-2333 (protein, UniProt P51587 2270-2333, looked up, fragment)
chain: GKRRGEPLILVGEPSIKRNLLNEFDRIIENQEKSLKASKSTPDGTIKDRRLFMHHVSLEPITCV
modifications: Flag tag
interaction with HSF2BP (co-precipitation) [8]: reduced efficiency | interaction with H3 (co-precipitation) [9]: same level of interaction
